As a reminder, the Kd is a measure of binding affinity in units of concentration. A low value points to tighter binding. What is called koff is the rate constant with which the complex falls apart. A higher koff goes with fast dissociation. A word on the kon: it is the second-order rate constant of association. Low readings indicate slow association, high ones fast association.

B1: Antibody I-HX-2 (antibody, human IgG4 S228P, kappa, V domains shown)
VH: VQLVQSGAEVKKPGASVKVSCKASGYSFTSYWMHWVRQAPGQGLEWMGAIYPGNSDTSYNQKFKGRVTITAVTSASTAYMELSSLRSEDTAVYYCTRWGDGYYHAMDHWGQGTLVTVSS
VL: DIQMTQSPSSLSASVGDRVTITCRASQDIGNTLNWLQQKPGKAIKRLIYATSSLDSGVPKRFSGSRSGSDYSLTISSLQPEDFATYYCLQYASSPFTFGQGTKLEIKR
notes: also called antibody I sample; candidate antibody I sample
B2: Antibody I-HX-5 (antibody, human IgG4 S228P, kappa, V domains shown)
VH: VQLVQSGAEVKKPGASVKVSCKASGYTFTSYWMHWVRQAPGQGLEWMGAIYWAHSETSYNQKFKGRVTITAVTSASTAYMELSSLRSEDTAVYYCTHWLEVYFHGMDHWGQGTLVTVSS
VL: DIQMTQSPSSLSASVGDRVTITCRASQNGINTLNWLQQKPGKAIKRLIYVTSSLDSGVPKRFSGSRSGSDYSLTISSLQPEDFATYYCLYYASYFFTFGQGTKLEIKR
B3: Antibody I-HX-3 (antibody, human IgG4 S228P, kappa, V domains shown)
VH: VQLVQSGAEVKKPGASVKVSCKASGYTYYFYWMHWVRQAPGQGLEWMGAIYHGNSETSYNQKFKGRVTITAVTSASTAYMELSSLRSEDTAVYYCTHWADAYFHGMNHWGQGTLVTVSS
VL: DIQMTQSPSSLSASVGDRVTITCRASQNIANTLNWLQQKPGKAIKRLIYVSSSLDSGVPKRFSGSRSGSDYSLTISSLQPEDFATYYCLYYASYFFTFGQGTKLEIKR
B4: Antibody I-HX-8 (antibody, human IgG4 S228P, kappa, V domains shown)
VH: VQLVQSGAEVKKPGASVKVSCKASGYSFTTYWMHWVRQAPGQGLEWMGAIYPVHSETSYNQKFKGRVTITAVTSASTAYMELSSLRSEDTAVYYCTHWIEAFFHLMQHWGQGTLVTVSS
VL: DIQMTQSPSSLSASVGDRVTITCRASQNIGQTLNWLQQKPGKAIKRLIYSTSSLDSGVPKRFSGSRSGSDYSLTISSLQPEDFATYYCLQYASSPFTFGQGTKLEIKR
B5: Antibody I-HX-4 (antibody, human IgG4 S228P, kappa, V domains shown)
VH: VQLVQSGAEVKKPGASVKVSCKASGYTYNFYWMHWVRQAPGQGLEWMGAIYHVQSDTSYNQKFKGRVTITAVTSASTAYMELSSLRSEDTAVYYCTHWLEVYFHGMDHWGQGTLVTVSS
VL: DIQMTQSPSSLSASVGDRVTITCRASQEIGQTLNWLQQKPGKAIKRLIYVTSSLDSGVPKRFSGSRSGSDYSLTISSLQPEDFATYYCLYFASSPFTFGQGTKLEIKR
B6: Antibody I-HX-1 (antibody, human IgG4 S228P, kappa, V domains shown)
VH: VQLVQSGAEVKKPGASVKVSCKASGYSYYFYWMHWVRQAPGQGLEWMGAIYHINSDTSYNQKFKGRVTITAVTSASTAYMELSSLRSEDTAVYYCTRWGEGYYHAMNHWGQGTLVTVSS
VL: DIQMTQSPSSLSASVGDRVTITCRASQDLGNTLNWLQQKPGKAIKRLIYASSSLDSGVPKRFSGSRSGSDYSLTISSLQPEDFATYYCLYYASTPFTFGQGTKLEIKR
notes: expressed in HEK 293 or CHO cells
B7: Antibody I-HX-7 (antibody, human IgG4 S228P, kappa, V domains shown)
VH: VQLVQSGAEVKKPGASVKVSCKASGYSFTTYWMHWVRQAPGQGLEWMGAIYWAHSETSYNQKFKGRVTITAVTSASTAYMELSSLRSEDTAVYYCTRWGDGYYHAMDHWGQGTLVTVSS
VL: DIQMTQSPSSLSASVGDRVTITCRASQEIGQTLNWLQQKPGKAIKRLIYATSSLDSGVPKRFSGSRSGSDYSLTISSLQPEDFATYYCLYYASTPFTFGQGTKLEIKR
B8: Antibody I-HX-6 (antibody, human IgG4 S228P, kappa, V domains shown)
VH: VQLVQSGAEVKKPGASVKVSCKASGYSFSSYWMHWVRQAPGQGLEWMGAIYPGQSETSYNQKFKGRVTITAVTSASTAYMELSSLRSEDTAVYYCTHWIDGYFHVMDHWGQGTLVTVSS
VL: DIQMTQSPSSLSASVGDRVTITCRASQEIGQTLNWLQQKPGKAIKRLIYGTSSLDSGVPKRFSGSRSGSDYSLTISSLQPEDFATYYCLNYISSPFTFGQGTKLEIKR
B9: Antibody II-HX-15 (antibody, human IgG4 S228P, kappa, V domains shown)
VH: VQLVQSGAEVKKPGASVKVSCKASGYTFTSYVMHWVRQAPGQGLEWMGYINPYNDGTKYNEKFKGRVTITSDKSASTAYMELSSLRSEDTAVYYCAWSGAIFEYWGQGTLVTVSS
VL: TQSPSFLSASVGDRVTITCSASSSVSYMHWFQQKPGKSPKLWIYSTSNLASGVPARFSGSGSGTSYSLTISSLQPEDFATYYCQQRSSYPYTFGQGTKLEIKR
notes: also called antibody II sample; candidate antibody II sample
B10: Antibody II-HX-14 (antibody, human IgG4 S228P, kappa, V domains shown)
VH: VQLVQSGAEVKKPGASVKVSCKASGYFFSSFVMHWVRQAPGQGLEWMGYINYYNDATKYNEKFKGRVTITSDKSASTAYMELSSLRSEDTAVYYCARSAALSEYWGQGTLVTVSS
VL: TQSPSFLSASVGDRVTITCSASSTITYMHWFQQKPGKSPKLWIYYTSNLASGVPARFSGSGSGTSYSLTISSLQPEDFATYYCQNRTSFHYTFGQGTKLEIKR
B11: Antibody II-HX-17 (antibody, human IgG4 S228P, kappa, V domains shown)
VH: VQLVQSGAEVKKPGASVKVSCKASGYFFSSFVMHWVRQAPGQGLEWMGYINHFQDATKYNEKFKGRVTITSDKSASTAYMELSSLRSEDTAVYYCARSVGITDYWGQGTLVTVSS
VL: TQSPSFLSASVGDRVTITCSASSTVYYMHWFQQKPGKSPKLWIYSYSNLASGVPARFSGSGSGTSYSLTISSLQPEDFATYYCQQRSSYHYTFGQGTKLEIKR
B12: Antibody II-HX-11 (antibody, human IgG4 S228P, kappa, V domains shown)
VH: VQLVQSGAEVKKPGASVKVSCKASGYYTSSPVMHWVRQAPGQGLEWMGYINYFYDGTKYNEKFKGRVTITSDKSASTAYMELSSLRSEDTAVYYCAKSAIAFEYWGQGTLVTVSS
VL: TQSPSFLSASVGDRVTITCSASSTVYYMHWFQQKPGKSPKLWIYSTSNLASGVPARFSGSGSGTSYSLTISSLQPEDFATYYCQYRSSYWYTFGQGTKLEIKR
B13: Antibody II-HX-18 (antibody, human IgG4 S228P, kappa, V domains shown)
VH: VQLVQSGAEVKKPGASVKVSCKASGYYTSSPVMHWVRQAPGQGLEWMGYINPYNDGTKYNEKFKGRVTITSDKSASTAYMELSSLRSEDTAVYYCAKSGGISDYWGQGTLVTVSS
VL: TQSPSFLSASVGDRVTITCSASSSASYMHWFQQKPGKSPKLWIYSYSNLASGVPARFSGSGSGTSYSLTISSLQPEDFATYYCQYRTSYPYTFGQGTKLEIKR
B14: Antibody II-HX-13 (antibody, human IgG4 S228P, kappa, V domains shown)
VH: VQLVQSGAEVKKPGASVKVSCKASGYSFTSYVMHWVRQAPGQGLEWMGYINPYNDGTKYNEKFKGRVTITSDKSASTAYMELSSLRSEDTAVYYCARSIGITDYWGQGTLVTVSS
VL: TQSPSFLSASVGDRVTITCSASSSISYMHWFQQKPGKSPKLWIYSTSNLASGVPARFSGSGSGTSYSLTISSLQPEDFATYYCQQRSSFPYTFGQGTKLEIKR
B15: Antibody II-HX-16 (antibody, human IgG4 S228P, kappa, V domains shown)
VH: VQLVQSGAEVKKPGASVKVSCKASGYFYTSYVMHWVRQAPGQGLEWMGYINPFQDITKYNEKFKGRVTITSDKSASTAYMELSSLRSEDTAVYYCAWSAALSEYWGQGTLVTVSS
VL: TQSPSFLSASVGDRVTITCSASSSVSYMHWFQQKPGKSPKLWIYSTSNLASGVPARFSGSGSGTSYSLTISSLQPEDFATYYCQNRYSYPYTFGQGTKLEIKR
B16: Antibody II-HX-19 (antibody, human IgG4 S228P, kappa, V domains shown)
VH: VQLVQSGAEVKKPGASVKVSCKASGYYTTSYVMHWVRQAPGQGLEWMGYINHFQDATKYNEKFKGRVTITSDKSASTAYMELSSLRSEDTAVYYCAWSGAIFEYWGQGTLVTVSS
VL: TQSPSFLSASVGDRVTITCSASSSGYYMHWFQQKPGKSPKLWIYTTSNLASGVPARFSGSGSGTSYSLTISSLQPEDFATYYCQQRSSYPYTFGQGTKLEIKR
B17: Antibody II-HX-10 (antibody, human IgG4 S228P, kappa, V domains shown)
VH: VQLVQSGAEVKKPGASVKVSCKASGYSTSSFVMHWVRQAPGQGLEWMGYINYYNDATKYNEKFKGRVTITSDKSASTAYMELSSLRSEDTAVYYCAWSGAIFEYWGQGTLVTVSS
VL: TQSPSFLSASVGDRVTITCSASSSVSYMHWFQQKPGKSPKLWIYSYSNLASGVPARFSGSGSGTSYSLTISSLQPEDFATYYCQNRTSFHYTFGQGTKLEIKR

The target in the first assay is T1, human PD-L1 antigen (Beijing Sino Biological Inc, Catalog No. #10084-H08H-100) (human, UniProt Q9NZQ7 19-239).
T1 construct: Bought antigen; also called the antigen
T1 sequence (Q9NZQ7 19-239 limits assumed): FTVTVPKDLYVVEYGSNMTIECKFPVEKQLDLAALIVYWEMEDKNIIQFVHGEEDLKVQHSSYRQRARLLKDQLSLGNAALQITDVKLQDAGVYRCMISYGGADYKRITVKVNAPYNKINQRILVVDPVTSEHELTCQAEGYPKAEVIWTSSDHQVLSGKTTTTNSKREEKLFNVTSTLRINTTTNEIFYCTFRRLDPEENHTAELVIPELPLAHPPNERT
In words: BLI (ForteBIO Octet), antibody captured on sensor, human PD-L1 in solution. For orientation: In BLI a coated tip is dipped into the sample, and binding shifts an interference pattern.
Regarding B1, binding was put at a Kd of 0.0291 nM, the koff stood at 2.7e-07 s⁻¹ and the kon is 9280 M⁻¹ s⁻¹.
The matching figures for B2: 0.459 nM, 3.27e-06 s⁻¹ and 7120 M⁻¹ s⁻¹.
As to B3, the Kd was found to be 0.271 nM, the koff was 1.92e-06 s⁻¹ and the kon turned out to be 7080 M⁻¹ s⁻¹.
As to B4, the Kd came to 0.259 nM, the dissociation rate constant (koff) was 1.81e-06 s⁻¹ and the kon stood at 6990 M⁻¹ s⁻¹.
The matching figures for B5: 0.11 nM, 8.95e-07 s⁻¹ and 8100 M⁻¹ s⁻¹.
B6 registered a Kd of 0.046 nM, a koff of 4.1e-07 s⁻¹ and a kon of 8920 M⁻¹ s⁻¹.
In turn, B7 came in with a Kd of 0.047 nM, a koff of 4.27e-07 s⁻¹ and a kon of 9090 M⁻¹ s⁻¹.
B8 returned a Kd of 0.0481 nM, a koff of 4.29e-07 s⁻¹ and a kon of 8930 M⁻¹ s⁻¹.

For another assay, the target named is T1, human PD-L1 antigen (Beijing Sino …). The assay is described as above. This is another data set of the same source.
B9 gave a Kd of 0.149 nM, a koff of 5.6e-07 s⁻¹ and a kon of 3760 M⁻¹ s⁻¹.
Molecule B10 returned a Kd of 3.19 nM, a koff of 9.55e-06 s⁻¹ and a kon of 2990 M⁻¹ s⁻¹.
With B11, the Kd stood at 1.82 nM, the koff is 4.92e-06 s⁻¹ and the kon worked out at 2710 M⁻¹ s⁻¹.
The matching figures for B12: 2.8 nM, 7.71e-06 s⁻¹ and 2750 M⁻¹ s⁻¹.
Regarding B13, the dissociation constant (Kd) worked out at 0.624 nM, the koff stood at 1.92e-06 s⁻¹ and the kon was 3080 M⁻¹ s⁻¹.
Take B14: binding was characterised by a dissociation constant (Kd) of 0.707 nM, the koff is 2.13e-06 s⁻¹ and the on-rate (kon) was 3010 M⁻¹ s⁻¹.
Turning to B15, binding was characterised by a dissociation constant (Kd) of 3.71 nM, the dissociation rate constant (koff) amounted to 9.19e-06 s⁻¹ and the kon stood at 2500 M⁻¹ s⁻¹.
Consider B16, for which the affinity, expressed as Kd, was 1.23 nM; the koff was determined as 3.75e-06 s⁻¹; the kon was determined as 3040 M⁻¹ s⁻¹.
The molecule B17 showed a Kd of 3.67 nM, a koff of 9.2e-06 s⁻¹ and a kon of 2510 M⁻¹ s⁻¹.

Source of the values: US20230143294A1 (SYNBIO TECHNOLOGIES, published 2023).
